Data: patent publication US20210355194A1 (TWIST BIOSCIENCE, published 2021)
Read-outs that look alike come from different tables or passages of the source.

B1: ACE2 variant antibody 4-62 (VHH)
VHH: EVQLVESGGGLVQPGGSLRLSCAASGRTFSDDTMGWFRQAPGKEREFVAAINWSGGSTDYADSVKGRFTISADNSKNTAYLQMNSLKPEDTAVYYCATDPPLFWGQGTLVTVSS
B2: ACE2 variant antibody 4-63 (VHH)
VHH: EVQLVESGGGLVQPGGSLRLSCAASGRTFSDYTMGWFRQAPGKEREFVAAINWSGGYTYYADSVKGRFTISADNSKNTAYLQMNSLKPEDTAVYYCATDPPLFWGQGTLVTVSS
B3: ACE2 variant antibody 4-78 (VHH)
VHH: EVQLVESGGGLVQPGGSLRLSCAASGRTFSDDTMGWFRQAPGKEREFVAGMTWSGSSTFYADSVKGRFTISADNSKNTAYLQMNSLKPEDTAVYYCATDPPLFWGQGTLVTVSS
B4: ACE2 variant antibody 4-69 (VHH)
VHH: EVQLVESGGGLVQPGGSLRLSCAASGRTFSDDAMGWFRQAPGKEREFVAAINWSGGTTRYADSVKGRFTISADNSKNTAYLQMNSLKPEDTAVYYCATDPPLFWGQGTLVTVSS
B5: ACE2 variant antibody 4-82 (VHH)
VHH: EVQLVESGGGLVQPGGSLRLSCAASGRTFGDYAMGWFRQAPGKEREFVAAINWSGGYTRYADSVKGRFTISADNSKNTAYLQMNSLKPEDTAVYYCATDPPLFWGQGTLVTVSS
B6: ACE2 variant antibody 4-76 (VHH)
VHH: EVQLVESGGGLVQPGGSLRLSCAASGRTFGDYAMGWFRQAPGKERELVAPINWSGGSTYYADSVKGRFTISADNSKNTAYLQMNSLKPEDTAVYYCATDPPLFWGQGTLVTVSS
B7: ACE2 variant antibody 4-74 (VHH)
VHH: EVQLVESGGGLVQPGGSLRLSCAASGLTFSDDTMGWFRQAPGKEREFVAAVSWSGGNTYYADSVKGRFTISADNSKNTAYLQMNSLKPEDTAVYYCATDPPLFWGQGTLVTVSS
B8: ACE2 variant antibody 4-75 (VHH)
VHH: EVQLVESGGGLVQPGGSLRLSCAASGRTFGDDTMGWFRQAPGKEREFVAAINWTGGYTPYADSVKGRFTISADNSKNTAYLQMNSLKPEDTAVYYCATDPPLFWGQGTLVTVSS
B9: ACE2 variant antibody 4-67 (VHH)
VHH: EVQLVESGGGLVQPGGSLRLSCAASGRTFSDDTMGWFRQAPGKEREFVAAINWSGDSTYYADSVKGRFTISADNSKNTAYLQMNSLKPEDTAVYYCATDPPLFWGQGTLVTVSS
B10: ACE2 variant antibody 4-25 (VHH)
VHH: EVQLVESGGGLVQPGGSLRLSCAASGGTFSRYAMGWFRQAPGKEREWVSAVDSGGSTYYADSVKGRFTISADNSKNTAYLQMNSLKPEDTAVYYCAASPSLRSAWQWGQGTLVTVSS
B11: ACE2 variant antibody 4-56 (VHH)
VHH: EVQLVESGGGLVQPGGSLRLSCAASGFSLDYYGMGWFRQAPGKERESVAAISWNGDFTAYADSVKGRFTISADNSKNTAYLQMNSLKPEDTAVYYCAKRANPTGAYFDYWGQGTLVTVSS
B12: ACE2 variant antibody 4-33 (VHH)
VHH: EVQLVESGGGLVQPGGSLRLSCAASGFTFSRHDMGWFRQAPGKEREFVAGINWESGSTNYADSVKGRFTISADNSKNTAYLQMNSLKPEDTAVYYCAADRGVYGGRWYRTSQYTWGQGTLVTVSS
B13: ACE2 variant antibody 4-64 (VHH)
VHH: EVQLVESGGGLVQPGGSLRLSCAASGRTFGDYIMGWFRQAPGKERESVAAINWSAGYTAYADSVKGRFTISADNSKNTAYLQMNSLKPEDTAVYYCATASPNTGWHFDHWGQGTLVTVSS
B14: ACE2 variant antibody 4-49 (VHH)
VHH: EVQLVESGGGLVQPGGSLRLSCAASGRTFGDYIMGWFRQAPGKERESVAAINWSAGYTAYADSVKGRFTISADNSKNTAYLQMNSLKPEDTAVYYCARASPNTGWHFDHWGQGTLVTVSS
B15: ACE2 variant antibody 4-95 (VHH)
VHH: EVQLVESGGGLVQPGGSLRLSCAASGRTFGDYIMGWFRQAPGKEREIVAAINWSAGYTAYADSVKGRFTISADNSKNTAYLQMNSLKPEDTAVYYCATAPPLFCWHFDHWGQGTLVTVSS
B16: ACE2 variant antibody 4-41 (VHH)
VHH: EVQLVESGGGLVQPGGSLRLSCAASGRTFGDYIMGWFRQAPGKERESVAAINWSGGTTPYADSVKGRFTISADNSKNTAYLQMNSLKPEDTAVYYCATDPPLFCCHVDLWGQGTLVTVSS
B17: ACE2 variant antibody 4-61 (VHH)
VHH: EVQLVESGGGLVQPGGSLRLSCAASGRTFGDYIMGWFRQAPGKEREIVAAINWSADYTPYADSVKGRFTISADNSKNTAYLQMNSLKPEDTAVYYCATAPPNTGWHFDHWGQGTLVTVSS
B18: ACE2 variant antibody 3-8 (antibody, V domains shown)
VH: EVQLLESGGGLVQPGGSLRLSCAASGFTFRSHAMSWVRQAPGKGLEWVSSISGGGASTYYADSVKGRFTISRDNSKNTLYLQMNSLRAEDTAVYYCARVKYLTTSSGWPRPYFDNWGQGTLVTVSS
VL: DIQMTQSPSSLSASVGDRVTITCRASQSIGKYLNWYQQKPGKAPKLLIYASSTLQRGVPSRFSGSGSGTDFTLTISSLQPEDFATYYCQQSLSTPFTFGQGTKVEIK
B19: ACE2 variant antibody 3-9 (antibody, V domains shown)
VH: EVQLLESGGGLVQPGGSLRLSCAASGFTFRSYAMSWVRQAPGKGLEWVSSISGGGASTYYADSVKGRFTISRDNSKNTLYLQMNSLRAEDTAVYYCARVKYLTTSSGWPRPYFDNWGQGTLVTVSS
VL: DIQMTQSPSSLSASVGDRVTITCRASQSIGKYLNWYQQKPGKAPKLLIYASSTLQRGVPSRFSGSGSGTDFTLTISSLQPEDFATYYCQQSFSTPFTFGQGTKVEIK
B20: variant 6-108 (Fc fusion)
VHH: EVQLVESGGGLVQPGGSLRLSCAASGGTFGSYGMGWFRQAPGKEREFVAAIRWSGGITYYADSVKGRFTISADNSKNTAYLQMNSLKPEDTAVYYCARERYWNPLPYYYYGMDVWGQGTLVTVSS
B21: ACE2 variant antibody 4-89 (VHH)
VHH: EVQLVESGGGLVQPGGSLRLSCAASGFAFGDNWIGWFRQAPGKEREWVASISSGGTTAYADNVKGRFTIIADNSKNTAYLQMNSLKPEDTAVYYCAHRGGWLRPWGYWGQGTLVTVSS
B22: ACE2 variant antibody 4-57 (VHH)
VHH: EVQLVESGGGLVQPGGSLRLSCAASGLTFRNYAMGWFRQAPGKEREFVAAIGSGGYTDYADSVKGRFTISADNSKNTAYLQMNSLKPEDTAVYYCAVKPGWVARDPSQYNWGQGTLVTVSS
B23: ACE2 variant antibody 4-52 (VHH)
VHH: EVQLVESGGGLVQPGGSLRLSCAASGRSFSNSVMGWFRQAPGKEREFVARITWNGGSTYYADSVKGRFTISADNSKNTAYLQMNSLKPEDTAVYYCATTENPNPRWGQGTLVTVSS
B24: ACE2 variant antibody 4-39 (VHH)
VHH: EVQLVESGGGLVQPGGSLRLSCAASGRTFSNAAMGWFRQAPGKEREFVARILWTGASRNYADSVKGRFTISADNSKNTAYLQMNSLKPEDTAVYYCATTENPNPRWGQGTLVTVSS
B25: variant 6-112 (Fc fusion)
VHH: EVQLVESGGGLVQPGGSLRLSCAASGGTFSAYHMGWFRQAPGKERELVTIIDNGGPTSYADSVKGRFTISADNSKNTAYLQMNSLKPEDTAVYYCTALLYYFDNSGYNFDPFDIWGQGTLVTGSS

What was measured:
ACE2 [1] = molecular target: T1, ACE2 (human, UniProt Q9BYF1 18-740)
ACE2 [2] = molecular target: T1, ACE2; remark: listed apart in the source
[3] = molecular target: T2, Acro SARS-CoV-2 (COVID-19) S1 protein (SARS-CoV-2, UniProt P0DTC2 16-685); experiment: SPR
T2 construct: also called SARS-CoV-2 S1

T1 sequence (Q9BYF1 18-740 limits assumed): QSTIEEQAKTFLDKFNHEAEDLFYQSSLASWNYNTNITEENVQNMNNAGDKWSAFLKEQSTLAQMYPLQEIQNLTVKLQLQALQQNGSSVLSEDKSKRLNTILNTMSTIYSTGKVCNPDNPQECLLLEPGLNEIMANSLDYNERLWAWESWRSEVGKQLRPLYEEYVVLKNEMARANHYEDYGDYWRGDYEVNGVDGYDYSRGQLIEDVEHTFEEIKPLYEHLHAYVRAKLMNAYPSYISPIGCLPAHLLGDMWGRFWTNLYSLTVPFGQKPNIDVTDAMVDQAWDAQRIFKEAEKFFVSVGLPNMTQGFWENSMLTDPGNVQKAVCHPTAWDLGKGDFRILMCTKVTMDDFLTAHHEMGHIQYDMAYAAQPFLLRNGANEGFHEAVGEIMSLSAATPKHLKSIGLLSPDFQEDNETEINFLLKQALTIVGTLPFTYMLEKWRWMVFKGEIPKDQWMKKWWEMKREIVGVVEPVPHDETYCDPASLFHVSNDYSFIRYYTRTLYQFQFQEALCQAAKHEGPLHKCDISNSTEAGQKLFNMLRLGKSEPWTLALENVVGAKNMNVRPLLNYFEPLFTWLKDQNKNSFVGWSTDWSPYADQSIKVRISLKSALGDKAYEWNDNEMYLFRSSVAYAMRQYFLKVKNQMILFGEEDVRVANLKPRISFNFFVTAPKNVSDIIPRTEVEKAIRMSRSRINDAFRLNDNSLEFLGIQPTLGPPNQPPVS

Binder | koff (ACE2 [1]) [s⁻¹] | kon (ACE2 [1]) [M⁻¹ s⁻¹] | Kd (ACE2 [2]) [nM] | koff (ACE2 [2]) [s⁻¹] | kon (ACE2 [2]) [M⁻¹ s⁻¹] | Kd [3] [nM]
B1 | 0.00365 | 245000 | 14.9 | 0.00365 | 245000 | –
B2 | 0.00105 | 610000 | 1.7 | 0.00105 | 610000 | –
B3 | 0.00263 | 247000 | 10.7 | 0.00263 | 247000 | –
B4 | 0.00256 | 99400 | 25.8 | 0.00256 | 99400 | –
B5 | 0.00333 | 301000 | 11.1 | 0.00333 | 301000 | –
B6 | 0.00428 | 135000 | 31.8 | 0.00428 | 135000 | –
B7 | 0.00285 | 248000 | 11.5 | 0.00285 | 248000 | –
B8 | 0.00478 | 299000 | 16 | 0.00478 | 299000 | –
B9 | 0.00214 | 93900 | 22.8 | 0.00214 | 93900 | –
B10 | 0.00303 | 78700 | 38.5 | 0.00303 | 78700 | –
B11 | 0.00237 | 130000 | 18.2 | 0.00237 | 130000 | –
B12 | 0.000552 | 229000 | 2.4 | 0.000552 | 229000 | –
B13 | 0.0007 | 2.9e+06 | 0.2 | 0.0007 | 2.9e+06 | –
B14 | 0.00098 | 2.91e+06 | 0.3 | 0.00098 | 2.91e+06 | –
B15 | 0.00772 | 415000 | 18.6 | 0.00772 | 415000 | –
B16 | 0.001 | 180000 | 5.6 | 0.001 | 180000 | –
B17 | 0.00286 | 348000 | 8.2 | 0.00286 | 348000 | –
B18 | 0.00509 | 114000 | 44.6 | 0.00509 | 114000 | –
B19 | 0.00569 | 83600 | 68 | 0.00569 | 83600 | –
B20 | – | – | – | – | – | 69.4
B21 | 0.000611 | 2.04e+06 | 0.3 | 0.000611 | 2.04e+06 | –
B22 | 0.00239 | 307000 | 7.8 | 0.00239 | 307000 | –
B23 | 0.00149 | 126000 | 11.8 | 0.00149 | 126000 | –
B24 | 0.0137 | 136000 | 101 | 0.0137 | 136000 | –
B25 | – | – | – | – | – | 3230
